Experimental data published in patent US20170296650A1.

How the values were obtained:
[1] = biological target: hCMV gH (HEK293T transfectant) (hCMV), P12824; test: cell competition; competitor 13H11-biotin; details: remark: other sources report otherwise
[2] = biological target: hCMV gH (HEK293T transfectant) (hCMV), P12824; test: cell competition; competitor 3G16-biotin; details: remark: other sources report otherwise
[3] = biological target: hCMV gH (HEK293T transfectant) (hCMV), P12824; test: cell competition; competitor 11B12-biotin; details: remark: other sources report otherwise
gB 69-78 peptide (hCMV) = gB 69-78 peptide (hCMV) (UniProt P06473); test: ELISA, gB 69-78 peptide

B1: 11B12 (antibody, V domains shown)
VH: QMQLVQSGPQVKKPGTSVKVSCKASGFTFTSSAMQWVRQARGQRPEWIGWIVLGSGNTNYAQKFQERVTLTRDMSTATAYMELSSLRSEDTAVYYCAADRGRGGYNVYTYWGQGTLVAVSS
VL: EIVMTQSPGTLSLSPGERATLSCRASQTISNTYVAWYQQKPGQAPRLLIYGASSRATGIPDRFSGSGSGTDFTLTIRRLEPEDFAVYYCQQNGQSPWTFGQGTNVEIK
Inhibition of binding (%) [1]: 100%
Inhibition of binding (%) [2]: 0%
Inhibition of binding (%) [3]: 100%

B2: 3G16 (antibody, V domains shown)
VH: RAQLVQSAAEMKNPGASVKVSCEASGYTFTGYYVHWMRQAPGQGLEWMGWINPMTGATKSPQKFQGRVTMTRDTSTTATHIELTRLRSDDSAVFFCARGGPTSTRITGKRHFDLWGRGTLITVAS
VL: QSALTQPASVSGSPGESITISCTGTISDVGAYNSVSWYQQHSGTAPELIIYDVTNRPAGVSSRFSGSKSGNTASLTISWLQSEDEAEYYCSSYTTSDTYVFGSGTQVTVL
Inhibition of binding (%) [1]: 0%
Inhibition of binding (%) [2]: 100%
Inhibition of binding (%) [3]: 0%

B3: 6B4 (antibody, V domains shown)
VH: QVQLVESGGGVVQPGRSLRLSCAASGFRFNEFNMHWVRQAPGKGLEWVAVISIDGRHKYNADSVEGRFTISRDNSRNTLYLQMNSLRVEDTALYYCVTDGKAVDGFSGILEFWGQGTPVTVST
VL: EIVLTQSPATLSLSPGERATLSCWASQSVGGYLAWYQQKPGQAPRLLIYDASIRATGIPARFSGSGSGTHFTLTINSLEPEDFAVYYCQQRNNWPPLTFGGGTKVEIK
EC50 (gB 69-78 peptide (hCMV)): 0.044 µg/mL

B4: 13H11 (antibody, V domains shown)
VH: QVQLVQSGAEVKKPGASVKVSCKASGYTFTNYYIHWVRQAPGQGLEWMGIIHPSSGGTSYAQKFQGRVTMTRDTSTSTVSMDLSSLRSEDTAVYYCGRAFRILGLSDVFVNDWGQGTVVTVSS
VL: DIQMTQSPSSLSASVGDRVTITCRASQGINNYLAWYQQKPGKVPKLLIYAASTLQSGVPSRFSGSGSGTAFTLTILSLQPEDVATYYCQKYNSAPFTFGPGTKVDIK
Inhibition of binding (%) [1]: 100%
Inhibition of binding (%) [2]: 0%
Inhibition of binding (%) [3]: 100%
